The data set is described as follows: soluble fraction after stress (log2 fold change); higher = more stays soluble; pooled small domains, quantitative proteomics. As to conditions: stress: pH 4. The gist of the method: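 With high-throughput quantitative proteomics, pooled custom libraries of small protein domains were measured after pH 4 stress. Each domain's soluble amount after the stress gives a fold change taken as aggregation propensity. Higher log2 values mean more of the domain stayed soluble.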
Regarding “HMDAQNLQDQLFGFLKANPTQAYPAQTLADGLRLDDANAFTKVVQALAALERGGKVKVNEEGAFQYDAEK”, the “soluble fraction (log2)” value was -0.0669.
The result for “HMDARSTHIAAIHVLKSKLQLQDSDYRALLLTLTGQTSSKDLSEHQRRAVRNHMQQLAERMGVVQ” reads 0.0263; that for “HMDATFKVRVSVPDLNIRSGPGTNYAATGRFTGVGVFTITAVQSGQGSSSGWGKLKSGAGWIALDYAKR”, 0.341.
The same measure for “HMDATIGGFKITDSAIYSGVKNNVNAGVRGTYIDKDGQIAFGDSNSYLKYYKDTDGKWKLEVSASSVKF”: -0.476.
The same measure for “HMDAVDKDGNHMTFKKWSEQLQEAFHALELYDTTRAKQILSELVKFQVDSDITKSLKAIITNIDDMMA”: -1.5.
For the sequence “HMDAYDEVTTLSQMVASGKNTTVAHLKHLKEYHQTDYLRQAVEWLLSNRKNVSFSVDEVMQEVHN”, the “soluble fraction (log2)” value was -0.434.
As to “HMDAYLPETVQKLLDVMDFDVPYSAAQLMEKLGLKSRASFRKLYLLPALEKNLIAMGVPDKPTSRNQTYIR”, the “soluble fraction (log2)” value amounted to 0.169.
The result for “HMDAYSYFIRTYPLVDDPLIGDIRRIFAETHDGNPAGDADVRHILWRLLFERELYPTLDEATADWY” reads -1.86; that for “HMDDEAVQIMTLHISKGLEFDVVFALGLVSRTPESKEIEELEAEKQRQLYVAMTRAEKWLIVAA”, 0.22; that for “HMDDEDLAFLQREFVSYQQAMDYYGLGYKPVVRLSHISGSVYKIGKKVLIRRNIFEEYLRNHV”, -0.666.
“HMDDFGERLRKLRVAQDLTQQQLGEKLGVVPSTIGKYEKVKDSYPSIEVLIKLSDFFSVSTDYLLKG”: the “soluble fraction (log2)” value is -0.905.
“HMDDFTEVLLQYLKDHDGYSSIHDKTDAETIYNTFGVSKKTFKKAVGDLYKKRLIVLEEEGIRLLG”: the “soluble fraction (log2)” value was -0.586.
With “HMDDISLEEIKYISSKLETKVNEIEELLVRYYDGETNEAEEKELKEFFAQADVPAHLLAEKRLFMQLASQ”, the “soluble fraction (log2)” value is -0.324.
On to “HMDDKVGKVFNYVQEKILTGEWDIGDKITPEISLSKELGVSRSVVREAIKKFVALNILSRTQGGGTYVNNL”, for which the “soluble fraction (log2)” value is -0.621.
The result for “HMDDNMNEQWKMILNSIAKKGSVTRQETEKILGIGQTRAHVLLKAMIHAGMIKAVGDGKKRRYVR” reads at least 0.43.
Take “HMDDNRSLSDLAQQVFKRENIQVSRDTLSLLVSRLGSDRAVSRQEIEKLALFAGSNGKLTEEDIHNALG”: the “soluble fraction (log2)” value was -0.195.
Consider “HMDDPISSMVNRIRLAFGLSVTDLAAVLGVERPTIYSWLKDGSTPAPARLTRVRQVLSLADTW”, for which the “soluble fraction (log2)” value is at least 0.43.
The result for “HMDDPITVAYRETEDAIAQVQREGFPVEMPPANSYIRRIQHELAGRFNLDSESYGDEPERRVRIRPQQ” reads -0.92; that for “HMDDPTVILFDPKNGQRKIVKWKAGLTLYSARRSAGISSAAEATIQRAGKSLSGRTATALEPGDVIRW”, 0.203; that for “HMDDSSLFGRHTGIGFIVDDIDSGYQTLLAKGVSFEMPPTEQPWGGILALMKDPDGNIFYLD”, -0.488.
In the case of “HMDDTRLLSEIGLSQRVLNALRARGIERVGQVLAMRPDQLLGIRNFGPRALQELRERLQENGYTEGPLFSG”, the “soluble fraction (log2)” value was -0.252.
On to “HMDDVIDVYATYDVSPTNQISNIKLYSDAAHANPVTGEAGKSYNDITEGHPGYQFRWSGTTWVPI”, for which the “soluble fraction (log2)” value came to 0.0332.
Regarding “HMDDVIEVEGKVVEVLPNTKFIVELANSHKITAHISGKLRMNYIRIMKGDNVTVEMSPYDLTKGRIIWRS”, the “soluble fraction (log2)” value was -0.167.
For the sequence “HMDDVVVLPFTAEFARMSSDDFVREILVGKIGMKRFVVGYNHRFGSGQQGDFASLQRMQGELGFVAVRVG”, the “soluble fraction (log2)” value is -0.479.
As for “HMDDVYMVPVKDIAINDLKQEFEKLGIPNIQNTIPDKDLNFFIVRKDDLALVNYAIEKTMER”, the “soluble fraction (log2)” value is -0.523.
For “HMDEAETELIRRMVSEHPPTTKRERDIVQMRLRGYLFVEIGEAYGISFQRAAQIYNAAVEKIKEYWD”, the “soluble fraction (log2)” value was -0.454.
The result for “HMDEEQIASRRALIMRAAREIMETQGMEALSIRKIAAMIQQTPGIIYHYFSGKEELMLAVVQEGYH” reads -0.219; that for “HMDEFAGSAKPLADGAAPAGYDVKGNKDSMKYHEPGGRWYDATVAEVWFKTAADAEAAGFVKAGA”, -0.266; that for “HMDEFHLSERERQILNLLVLGHTYKHIASDLNIAYATVNKHVSNVYAKLRVQSASEAVALAIRKGL”, -0.58.
On to “HMDEFTIILEDAGSQKIAVIKEVRVLNSSLGLKEAKDLVDATPATIMEKADKATADKAKAAFEAAGAKVTI”, for which the “soluble fraction (log2)” value was -0.75.
The result for “HMDEIDYSKYSITTSNRIINIDGVQSKVELFDVSGRSIQSTMVTGKFSSRPLNAGFYIIHVDGYSVKVSV” reads -1.19.
For “HMDELIKQVANYIINNRATINETAGAFGKSVSSIKKYINDADKLQRIDFELYQKVKEVQKIVELNGQI”, the “soluble fraction (log2)” value is -0.269.
“HMDEMEFQKYVDQNLKQKGISLTAEAKAELLLRLGGDTMLLHSAIEKLDLYGEKNLNLNDIKHLVSLNSDV”: the “soluble fraction (log2)” value was 0.0232.
In the case of “HMDENMQRYNTMEEIKKEFPYAEDTVRKLIAMGAIRGGGKVDANGDPADMDLSRDMLRMMVFNDRAGAYG”, the “soluble fraction (log2)” value is -0.761.
Turning to “HMDEPGTGFKWREDVLLRVMEANGIDTSHRDDFVRHAVKFDNDDNLYLKKAEIEDAAAAWVSEHS”, the “soluble fraction (log2)” value is -1.59.
On to “HMDERLAKLTPQERKILDLIAEGATNRQIGTELHLAEKTVKNYVSNMLMKLGMSRRTEAAVFAVKASIN”, for which the “soluble fraction (log2)” value is at least 0.43.
On to “HMDERLLRLYERELQFLREGADEFAQAYPKVAGHLGLNSQSMGDPFIERLLEGLGFLTARIQLQLESEF”, for which the “soluble fraction (log2)” value was -0.823.
“HMDEWFPVNDDYKFMVGDEVRTPDGLVKVVATHNDSATFYGKIITPIHDDVLKGETYEYRSYEAQVLA”: the “soluble fraction (log2)” value is -1.26.
With “HMDEWKRKELWDAIARLPKIQRMVVTMRTTENLPYKEIAKIMNISENSAKVNYHHAVEALKIFF”, the “soluble fraction (log2)” value worked out at 0.0454.
With “HMDEYGEVQALQRAGQTSEALARADRHIAAHPNDPQMRFVKANLLSAGGRAGEAETLLVQLTRD”, the “soluble fraction (log2)” value is -0.176.
The same measure for “HMDFDLIAIFEEQFARALSPIEINIIKEWKNSNYSDDMIVKALKEAVKSQVFNFRYIERILINWSQNG”: -1.64; for “HMDFDVELTSAGTAKVKVIKAVREATGLGLKEAKDLVDNAPSIVKEGLDEAAANDLKAALEETGASVTL”: 0.239; for “HMDFEEGAVKWFNTKKGYGFITRDQGDDIFVHFRNIKAQSRRSLTDGERVTFVVTEGDKGLQADHVSPV”: -0.886.
With “HMDFGHWAAHKLEQMSEYRLRHGEAVAIGIALDVLYSVRQGLLARPAAERILSLLERLGFTLFDPELKS”, the “soluble fraction (log2)” value is -0.291.
As for “HMDFLKSVDLSKYSKVESLILSHLSKGDFDIDDFIRSFSLGTDEVTRAIVSLEIEGIILRKGNRIFRKKS”, the “soluble fraction (log2)” value was found to be 0.0153.
Consider “HMDFMNSEIKKIVEDLKLTLQSLNYTKNEIKSILPVINKETDNLIKKEKYASFENLLRLAMNHLDNN”, for which the “soluble fraction (log2)” value is -0.929.
On to “HMDFTPDQIARLDDIISRYKDKPGGLIPVLEEAQVALEYLPIGVQKRIAKGLNLPLSRVYGVVTFYSFFTM”, for which the “soluble fraction (log2)” value is -0.451.
The result for “HMDFVKGDTVVFIDAFMPDHLMTIHKVQGEGILLDGNHKFALAHLIRHASTVELNAKRRLSLTEQS” reads -0.685; that for “HMDGASLLDIDGDGKVTPTIDGLLLMRWQFGTRGAALIGGISFPAGALRTTVNAIELHMRRLSETT”, -1.52.
The result for “HMDGDVAVKGGDGVLEVRLANAANVRVYNLAGRLMADYTGTELHMPLPKGVYMVVAGDNRTKVVV” reads -0.00794; that for “HMDGEINPYTGREYVTNSVRMHPRRIGYVQVYSRKDHKWTDMTEWAFLGEQERKKVLLGKAYEPPVYL”, 0.0599.
The result for “HMDGEMRRKRILQLLSEQTKPLSGTALAKQFGVSRQVIVQDIALLKSKEPAIISTYRGYVLGR” reads 0.142; that for “HMDGFAEFWSAYPKKVGKGAAEASWRKHRPPLQTVLDAVKRQAESDQWRKDGGQFIPNPATWLNQKRWEDD”, -0.101; that for “HMDGIIIPDVSGKSYAEAVATLNEKGFKVEKGEDAGSSLAKDLVSYTNPAAGNRAKSGATISVFVSTGANA”, -0.0718.
Consider “HMDGKTALQEIVASSGWSPPEYKVSESGPDHDKDFVAYAIVNGVAYPEGHGKSKREAEQVAARIAFEALSK”, for which the “soluble fraction (log2)” value was -0.00195.
As to “HMDGMRASDMVRAALAGAGKTQKELAEHMGWTPQNLSGRLKNNSLTFDELSKALHFAGYEVSMSDANGAG”, the “soluble fraction (log2)” value is -0.115.
“HMDGNVPSVEGKPLSGAKYILETYGYKTGTVTEVNSEDVPAGIVISQNPARGTTLANGGSVNLQVSLG”: the “soluble fraction (log2)” value was determined as 0.238.
In the case of “HMDGPGAGGRFLAEDLGTGKMTLEALQRHYVTLVYSRTGKYEETARRLEIDRRTVKKYLDEELLAELRET”, the “soluble fraction (log2)” value was -0.0817.
Turning to “HMDGQGIRSITPEYYLSDSATKMPDASSSGWKSVPDDYIDKHYYWVRSKILWDDGTYTTTTPVL”, the “soluble fraction (log2)” value is -0.291.
In the case of “HMDGRVQATAEKLRAALDRLARSSVGSPMIERQLTVAALAREARVGRNAIYANHRDILDELIRVRQQRRA”, the “soluble fraction (log2)” value was -0.309.
Regarding “HMDGTAKVAHMLVNELETFNRLKKHEIAYMLHIQPETLSRILNKLTRNGTIEIEKNSVVILNIQELKEIY”, the “soluble fraction (log2)” value is -0.271.
In the case of “HMDGVNRDKIEYRLDDLYYLKGSDAPYTGKVFEEWSGQQRVETNYIDGKLDGLSESWHENGQKASEVNY”, the “soluble fraction (log2)” value was -0.831.
Take “HMDHFLRRFQVEGLNLEKLLRLAAEREMDLLQVRRSGRRMTGLVAEKRLPELEELAAQGGWALRLGEY”: the “soluble fraction (log2)” value is at least 0.43.
The result for “HMDHSSLIKKLRLERGLSQKKLAQGISQRSTLASFENNATKISYNILIQYLDRMNVTLEEYQFMLDGNNL” reads -1.33.
Consider “HMDHWQSVNSALELLEVSRRTLYDYISRKKLQTKKEGKYRYVWIDDDVIEEIKTSKSAYIEINN”, for which the “soluble fraction (log2)” value was -1.08.
In the case of “HMDIAATTVKQKIRTLLADEDAARPLSDQKIADALAEDGIDVARRTVAKYREELGIEPSWARKR”, the “soluble fraction (log2)” value is 0.0608.
As to “HMDIDLGAVEEQAVKGSGPGGQKMNKTSSGVLLRYRLGEELVLVKWTRERQHSLNRFLALRELVDEIEAR”, the “soluble fraction (log2)” value is -0.099.
The result for “HMDIFFEKIFNILIGYNQNQENLISEKSILNFHLSHKSNSNFEYIPDEKTPKYIWKYLSNYNLLE” reads -0.477.

Values taken from the domain aggregation screens of Martell et al. (2025).
